The structures appear in SMILES notation. Like-named read-outs stand apart in the source and are kept apart here.

Consider one compound from PMC7321340, “Sorbitol as a Polar Pharmacological Modifier to Enhance the Hydrophilicity of ^99mTc-Tricarbonyl-Based Radiopharmaceuticals” (Molecules, 2020).

Data set [1] has as its target T1, Gastrin-releasing peptide receptor (GRPR) on PC-3 cells (Homo sapiens, UniProt P30550).
T1 construct: using GRPR expressing PC-3 cells; host or cells: PC-3 human prostate adenocarcinoma cells (intact, in 6-well plates, 4 °C)
As to the kind of experiment: Receptor saturation assay. The format is binding. The settings on record: 4 °C, 2 h, nonlinear regression, mean ± SEM, n = 2–3 in triplicate. The procedure:
The receptor affinity (Kd) and maximum receptor occupancy (Bmax) were determined by receptor saturation assays using increasing amounts of the radiolabeled peptides (Figure 3). […] Differences in specific molar activities (MBq/mol) could account for this observation and cannot be entirely excluded even though both ^99mTc-radiopeptides were prepared under identical conditions. Because this study aims at the investigation of differences in the pharmacokinetics of the radiopeptides (e.g., rate and route of excretion) rather than in tumor uptake, we continued with the evaluation of both compounds in vivo.
Cell culture reagents were purchased from Thermo Fisher Scientific (Vienna, Austria) or Sigma-Aldrich (Vienna, Austria). Human prostate adenocarcinoma cells (PC-3) were purchased from ATCC and cultivated in RPMI-1640 medium supplemented with 10% heat-inactivated fetal bovine serum (FBS), 2 mM L-glutamine, 100 units/mL penicillin and 100 μg/mL streptomycin under humidified atmosphere (37 °C, 5% CO2) until minimum 80% at confluence. […]
Receptor binding assays were performed as previously published. […] Non-specific receptor binding was determined using an excess of natural bombesin (2.5 μM/well for concentrations of the radiopeptide <10 nM, and 10 μM/well for higher concentrations). […] The obtained fractions were measured in a γ-counter.

Data set [2] relates to GRPR expressing PC-3 cells. As to the kind of experiment: Cell binding and internalization studies. The format is cell-based, human. How it is done: Receptor binding and cell internalization properties of the ^99mTc(CO)3-labeled BBN derivatives were investigated with GRPR expressing PC-3 cells (n = 2–3 in triplicate). Despite the slightly slower uptake kinetics of [^99mTc][Tc(CO)3(12)], both radiolabeled compounds [^99mTc][Tc(CO)3(L)] […] The membrane bound fraction was less than 5% AD/10^6 cells for both compounds. The receptor-specific cell uptake was verified by incubating the cells with the radiopeptides in the presence of 1000-fold excess of natural bombesin as blocking agent.
Cell culture reagents were purchased from Thermo Fisher Scientific (Vienna, Austria) or Sigma-Aldrich (Vienna, Austria). […]
Internalization studies were performed as previously published. […] Non-specific receptor binding was determined by incubating the cells with the radiotracers and 1000-fold excess of natural bombesin (250 pmol; 100 μL per well) as the receptor blocking agent. […] The receptor-bound radioactivity was obtained by incubating the cells twice for 5 min with an ice-cold acidic glycine solution (100 mM NaCl, 50 mM glycine, pH 2.8; 1 mL) on ice followed by removal of the supernatant. […] All fractions were measured in a γ-counter and calculated as percentage of the applied dose (n = 2–3 in triplicate).

Data set [3] can be described thus: Biodistribution in nude mice bearing PC-3 tumor xenografts. To be noted: female, athymic nude (Fox-1^nu), mouse, in vivo, iv, 10 pmol, total radioactivity. How it is done:
Biodistribution studies were performed in nude mice bearing PC-3 tumor xenografts at 1 h post-injection (p.i.) of the radiotracers (n = 6; Table 3, Figure 4).
All animals were treated according to the European Union rules on animal care. Animal experiments were approved by the Austrian Ministry of Sciences (BMBWF-66.009/0122-V/3b/2019). Approximately 5 × 10^6 PC-3 cells in 100 µL serum-free medium were subcutaneously injected into flanks of 8-week-old, female, athymic mice (Fox-1^nu, Charles River Laboratories). Xenografts were allowed to grow for 16 days (approx. size: 250 mm^3) and mice were intravenously injected via the tail vein with 0.1 µM radiolabeled peptide (10 pmol, ~42 kBq, 100 µL physiological saline) alone (baseline experiments) or co-injected with 2000-fold excess BBN(1–14) (20 nmol; blocking experiments). One hour p.i. of the radiotracers, mice were sacrificed and organs, tumor and blood were removed. Radioactivity in organs and tissues was quantified using a γ-counter (2480 Wizard^2, PerkinElmer). Organs and tissues were wet-weighted and percentage of injected dose per gram was calculated (% ID/g). Statistical analysis (2-way ANOVA) was performed by GraphPad Prism.

A short description of data set [4]: physchem. The settings on record: pH 7.4. The format is physicochemical. How it is done: For logD analysis, the octanol/PBS partition coefficients of the ^99mTc-tricarbonyl labeled BBN conjugates were determined at pH 7.4 utilizing the “shake-flask method” [25, 26]. The logD value for the reference compound [^99mTc][Tc(CO)3(BBN-13)] was −0.54 ± 0.04 while for the glycated compound [^99mTc][Tc(CO)3(12)] it was −1.26 ± 0.16 (Table 2). As expected, these measurements confirmed the increased hydrophilicity of the glycated ^99mTc-labeled BBN conjugate due to the introduction of the sorbitol moiety.
The lipophilicities (LogD) of [^99mTc][Tc(CO)3(L)] (L = 12, 13) were determined by their partition coefficient between n-octanol and PBS (pH 7.4) utilizing the “shake-flask method” [25, 26]. PBS and n-octanol were shaken overnight to saturate each phase. After separation of the layers by gravity, equal volumes (500 µL) of each layer were taken and transferred into an Eppendorf tube and 5 µL (~45 kBq) of the radiolabeled peptide solution were added to the PBS/n-octanol mixture. […] Aliquots of 300 µL were removed from the octanol and PBS phases and the radioactivity was measured in the γ-counter (n = 3 in triplicates). The lipophilicity was calculated as the log value of the average ratio between the radioactivity in the organic fraction (octanol) and the PBS fraction from the samples.

T1 sequence (P30550 whole entry): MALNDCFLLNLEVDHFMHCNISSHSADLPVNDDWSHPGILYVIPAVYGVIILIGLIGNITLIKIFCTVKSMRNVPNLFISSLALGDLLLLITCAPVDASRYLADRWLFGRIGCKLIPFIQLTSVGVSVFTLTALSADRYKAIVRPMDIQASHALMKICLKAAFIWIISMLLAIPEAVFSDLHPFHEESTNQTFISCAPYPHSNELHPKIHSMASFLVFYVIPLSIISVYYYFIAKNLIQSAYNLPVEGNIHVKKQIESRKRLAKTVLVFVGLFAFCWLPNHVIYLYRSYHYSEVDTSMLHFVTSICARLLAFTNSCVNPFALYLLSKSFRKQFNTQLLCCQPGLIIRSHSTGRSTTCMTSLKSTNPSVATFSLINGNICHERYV

One may read the Kd as a measure of binding affinity in units of concentration. Low values mean tighter binding, high ones weaker binding. Usually logD stands for the decadic logarithm of the distribution of all forms, ionised or not, between an organic phase and buffer at a given pH. High values mean a more lipophilic compound, low ones a more hydrophilic compound. With `CCCC[C@H](NC(=O)[C@H](CC(C)C)NC(=O)[C@H](Cc1c[nH]cn1)NC(=O)CNC(=O)[C@@H](NC(=O)[C@H](C)NC(=O)[C@H](Cc1c[nH]c2ccccc12)NC(=O)[C@H](CCC(N)=O)NC(=O)CCNC(=O)CCNC(=O)CCNC(=O)Cn1cc(CN[C@@H](CCCCNC(=O)CCCOC[C@H](O)[C@@H](O)[C@H](O)[C@H](O)CO)C(=O)O)nn1)C(C)C)C(N)=O` [[^99mTc][Tc(CO)3(12)], metal not drawn], the increase of hydrophilicity (logD) vs non-glycated reference amounted to 0.7 log units. In addition, the affinity in data set [1] (1–100 nM radiopeptide), expressed as Kd, was 21.3 ± 4.6 nM. In data set [1] (maximum receptor occupancy), this compound came in with a Bmax of 0.91 ± 0.06 nM. Besides, in data set [2] (1000-fold excess of natural bombesin), the “cellular binding and uptake in the presence of blocking agent” value is listed as < 0.5 % AD/10^6 cells. Moreover, the membrane bound fraction result in data set [2] (acidic glycine wash fraction, n = 2–3 in triplicate) is “less than 5 % AD/10^6 cells”. Further, in data set [3] (1 h p.i., i.v. 10 pmol, PC-3 xenograft, GRPR-positive, mean ± SD, n = 5–6, read-out: Tumor uptake), the tissue uptake at 1 h came to 2.72 ± 0.88 %ID/g. Besides, the tissue uptake at 1 h in data set [3] (1 h p.i., i.v. 10 pmol, mean ± SD, n = 5–6, read-out: Blood uptake) came to 1.22 ± 0.4 %ID/g. In addition, the tissue uptake at 1 h in data set [3] (1 h p.i., i.v. 10 pmol, mean ± SD, n = 5–6, read-out: Bone uptake) was determined as 0.44 ± 0.28 %ID/g. In addition, in data set [3] (1 h p.i., i.v. 10 pmol, mean ± SD, n = 5–6, read-out: Brain uptake), the tissue uptake at 1 h worked out at 0.09 ± 0.07 %ID/g. For the same compound, the tissue uptake at 1 h in data set [3] (1 h p.i., i.v. 10 pmol, mean ± SD, n = 5–6, read-out: Heart uptake) was found to be 0.5 ± 0.23 %ID/g. Moreover, in data set [3] (1 h p.i., i.v. 10 pmol, mean ± SD, n = 5–6, read-out: Kidney uptake), the tissue uptake at 1 h was found to be 4.32 ± 0.97 %ID/g. For the same compound, the tissue uptake at 1 h in data set [3] (1 h p.i., i.v. 10 pmol, mean ± SD, n = 5–6, read-out: Liver uptake) was found to be 2.75 ± 0.74 %ID/g. For the same compound, the tissue uptake at 1 h in data set [3] (1 h p.i., i.v. 10 pmol, mean ± SD, n = 5–6, read-out: Lung uptake) stood at 1.38 ± 0.83 %ID/g. In data set [3] (1 h p.i., i.v. 10 pmol, mean ± SD, n = 5–6, read-out: Muscle uptake), the tissue uptake at 1 h is 0.35 ± 0.24 %ID/g. Further, the tissue uptake at 1 h in data set [3] (1 h p.i., i.v. 10 pmol, mean ± SD, n = 5–6, read-out: Spleen uptake) is 1.16 ± 0.17 %ID/g. Moreover, the tissue uptake at 1 h in data set [3] (Adrenal uptake) worked out at 5.34 ± 1.85 %ID/g. The tissue uptake at 1 h in data set [3] (Colon uptake) was 5.85 ± 1.29 %ID/g. For the same compound, the tissue uptake at 1 h in data set [3] (Intestine uptake) was 3.71 ± 1.48 %ID/g. Moreover, the tissue uptake at 1 h in data set [3] (Pancreas uptake) was found to be 17.1 ± 3.25 %ID/g. Also, the tissue uptake at 1 h in data set [3] (Stomach uptake) is 3.03 ± 0.88 %ID/g. In addition, in data set [4], the logD is -1.26 ± 0.16.
